Source: article PMC11470070, “Structural basis for synthase activation and cellulose modification in the E. coli Type II Bcs secretion system” (Nature Communications, 2024)

T1: BcsQ (BcsR2Q2 in the Bcs macrocomplex) (Escherichia coli, UniProt P0DP92)
T1 construct: full-length untagged BcsQ with His-BcsR; co-expressed Bcs macrocomplex in E. coli NiCo21(DE3), anti-FLAG purified; nucleotide-driven sandwich dimer; with Cellulose biosynthesis protein BcsR; Cellulose synthase catalytic subunit [UDP-forming]; Cellulose biosynthesis protein BcsF; Cellulose biosynthesis protein BcsG
T1 sequence (P0DP92 1-250): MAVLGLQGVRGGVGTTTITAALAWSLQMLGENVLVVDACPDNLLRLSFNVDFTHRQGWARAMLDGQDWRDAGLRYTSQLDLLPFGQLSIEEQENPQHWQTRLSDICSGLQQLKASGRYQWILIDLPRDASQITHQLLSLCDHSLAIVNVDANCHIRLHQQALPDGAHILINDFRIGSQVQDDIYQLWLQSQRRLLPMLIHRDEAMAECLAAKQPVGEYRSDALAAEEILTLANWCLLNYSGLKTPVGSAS
T1 sequence (P0ADJ3 1-62 partner): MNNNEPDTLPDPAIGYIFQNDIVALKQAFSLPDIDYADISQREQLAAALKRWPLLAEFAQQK

T2: BcsA cellulose synthase (BcsA^HA-FLAG) (E. coli, UniProt P37653 1-872)
T2 construct: BcsA, E. coli; amplified within the genomic region bcsRQA^HA-FLAGB from genomic DNA of the E. coli 1094 bcsA^HA-FLAG strain; domains NTD, TMD, GT, PilZ, C-terminal tail; Expressed from the whole genomic region bcsRQAB of strain 1094; One copy in the macrocomplex; source: for the BcsF variants E. coli Δbcs BL21*(DE3)
T2 sequence: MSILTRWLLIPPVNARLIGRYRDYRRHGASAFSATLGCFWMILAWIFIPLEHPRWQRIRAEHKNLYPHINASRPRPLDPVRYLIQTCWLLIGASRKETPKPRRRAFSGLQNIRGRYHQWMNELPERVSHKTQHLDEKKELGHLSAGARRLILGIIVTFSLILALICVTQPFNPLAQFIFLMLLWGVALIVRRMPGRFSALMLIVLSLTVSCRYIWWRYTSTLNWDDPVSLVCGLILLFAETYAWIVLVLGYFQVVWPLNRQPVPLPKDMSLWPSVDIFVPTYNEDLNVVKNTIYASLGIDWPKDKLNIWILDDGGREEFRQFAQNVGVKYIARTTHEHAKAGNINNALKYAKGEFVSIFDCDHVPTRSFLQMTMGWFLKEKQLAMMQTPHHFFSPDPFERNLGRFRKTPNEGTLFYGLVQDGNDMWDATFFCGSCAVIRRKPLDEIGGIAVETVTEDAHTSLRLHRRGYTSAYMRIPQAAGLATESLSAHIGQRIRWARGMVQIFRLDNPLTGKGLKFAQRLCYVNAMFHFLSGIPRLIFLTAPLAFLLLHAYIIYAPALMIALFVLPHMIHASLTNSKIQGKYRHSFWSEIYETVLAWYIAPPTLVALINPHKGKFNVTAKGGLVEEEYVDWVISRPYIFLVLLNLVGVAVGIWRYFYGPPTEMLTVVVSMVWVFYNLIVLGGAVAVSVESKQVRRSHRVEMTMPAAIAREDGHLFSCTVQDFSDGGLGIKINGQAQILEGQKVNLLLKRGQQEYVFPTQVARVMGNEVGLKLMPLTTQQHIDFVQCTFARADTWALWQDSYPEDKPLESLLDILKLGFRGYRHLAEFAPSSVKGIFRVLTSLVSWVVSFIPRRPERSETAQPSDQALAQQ

B1: BcsG pEtN-transferase (enzyme, E. coli)
chain: MTQFTQNTAMPSSLWQYWRGLSGWNFYFLVKFGLLWAGYLNFHPLLNLVFAAFLLMPLPRYSLHRLRHWIALPIGFALFWHDTWLPGPESIMSQGSQVAGFSTDYLIDLVTRFINWQMIGAIFVLLVAWLFLSQWIRITVFVVAILLWLNVLTLAGPSFSLWPAGQPTTTVTTTGGNAAATVAATGGAPVVGDMPAQTAPPTTANLNAWLNNFYNAEAKRKSTFPSSLPADAQPFELLVINICSLSWSDIEAAGLMSHPLWSHFDIEFKNFNSATSYSGPAAIRLLRASCGQTSHTNLYQPANNDCYLFDNLSKLGFTQHLMMGHNGQFGGFLKEVRENGGMQSELMDQTNLPVILLGFDGSPVYDDTAVLNRWLDVTEKDKNSRSATFYNTLPLHDGNHYPGVSKTADYKARAQKFFDELDAFFTELEKSGRKVMVVVVPEHGGALKGDRMQVSGLRDIPSPSITDVPVGVKFFGMKAPHQGAPIVIEQPSSFLAISDLVVRVLDGKIFTEDNVDWKKLTSGL
notes: BcsG, E. coli; amplified within the genomic region bcsEFG; N-terminal domain of 5 transmembrane helices, 48-residue linker, C-terminal pEtN-transferase domain (the last not resolved in the maps); Three copies in the macrocomplex; also called BcsG^NTD; BcsG3
B2: BcsB co-polymerase (natural protein, E. coli, UniProt P37652 26-779, looked up)
chain: TPATQPLINAEPAVAAQTEQNPQVGQVMPGVQGADAPVVAQNGPSRDVKLTFAQIAPPPGSMVLRGINPNGSIEFGMRSDEVVTKAMLNLEYTPSPSLLPVQSQLKVYLNDELMGVLPVTKEQLGKKTLAQMPINPLFISDFNRVRLEFVGHYQDVCEKPASTTLWLDVGRSSGLDLTYQTLNVKNDLSHFPVPFFDPSDNRTNTLPMVFAGAPDVGLQQASAIVASWFGSRSGWRGQNFPVLYNQLPDRNAIVFATNDKRPDFLRDHPAVKAPVIEMINHPQNPYVKLLVVFGRDDKDLLQAAKGIAQGNILFRGESVVVNEVKPLLPRKPYDAPNWVRTDRPVTFGELKTYEEQLQSSGLEPAAINVSLNLPPDLYLMRSTGIDMDINYRYTMPPVKDSSRMDISLNNQFLQSFNLSSKQEANRLLLRIPVLQGLLDGKTDVSIPALKLGATNQLRFDFEYMNPMPGGSVDNCITFQPVQNHVVIGDDSTIDFSKYYHFIPMPDLRAFANAGFPFSRMADLSQTITVMPKAPNEAQMETLLNTVGFIGAQTGFPAINLTVTDDGSTIQGKDADIMIIGGIPDKLKDDKQIDLLVQATESWVKTPMRQTPFPGIVPDESDRAAETRSTLTSSGAMAAVIGFQSPYNDQRSVIALLADSPRGYEMLNDAVNDSGKRATMFGSVAVIRESGINSLRVGDVYYVGHLPWFERVWYALANHPILLAVLAAISVILLAWVLWRLLRIISRRRLNPDNE
notes: BcsB, E. coli; amplified within the genomic region bcsRQA^HA-FLAGB of E. coli 1094; periplasmic modules CBD1-FD1-CBD2-FD2 and a C-terminal tail-anchor (TA); Six copies in the macrocomplex; the strain used is 1094; also called BcsB^TA (tail-anchor); periplasmic crown
B3: BcsQ (natural protein, E. coli)
chain: MAVLGLQGVRGGVGTTTITAALAWSLQMLGENVLVVDACPDNLLRLSFNVDFTHRQGWARAMLDGQDWRDAGLRYTSQLDLLPFGQLSIEEQENPQHWQTRLSDICSGLQQLKASGRYQWILIDLPRDASQITHQLLSLCDHSLAIVNVDANCHIRLHQQALPDGAHILINNFRIGSQVQDDIYQLWLQSQRRLLPMLIHRDEAMAECLAAKQPVGEYRSDALAAEEILTLANWCLLNYSGLKTPVGSKS
notes: BcsQ, E. coli; amplified within the genomic region bcsRQA^HA-FLAGB of E. coli 1094; the strain used is 1094; also called SIMIBI family NTPase BcsQ
B4: BcsF (natural protein, E. coli)
chain: MMTISDIIEIIVVCALIFFPLGYLARHSLRRIRDTLRLFFAKPRYVKPAGTLRRTEKARATKK
notes: BcsF, E. coli; amplified within the genomic region bcsEFG; single transmembrane helix, amphipathic helical extension and cytosolic C-terminal tail; Two copies in the macrocomplex; also called inner membrane polypeptide BcsF; source: for the BcsF variants experiment E. coli Δbcs BL21*(DE3)

Columns and labels:
[1] = target: T1, BcsQ (BcsR2Q2 in the Bcs macrocomplex); assay: cryo-EM structure of the complex; format: binding; settings: nucleotide-driven BcsQ sandwich dimer; text says ATP-bound, but 10 uM AppCp (non-hydrolysable analogue) was in the purification buffers; 5 mM MgCl2, pH 8.0
[2] = target: T3, BcsE (in the BcsR2Q2AB6E2F2G3 Bcs macrocomplex) (Escherichia coli, UniProt P37657); assay: cryo-EM structure of the complex; format: binding; settings: intercalated c-di-GMP dimer per BcsE protomer at the REC*-GGDEF* dual I-site (R306ATD, R415TGD); 2-4 uM c-di-GMP, 5 mM MgCl2, pH 8.0
T3 construct: full-length, N-terminal Strep II tag; co-expressed Bcs macrocomplex in E. coli NiCo21(DE3), anti-FLAG purified; with Cellulose biosynthesis protein BcsF; Cellulose biosynthesis protein BcsR; Cellulose biosynthesis protein BcsQ; Cellulose synthase catalytic subunit [UDP-forming]; Cellulose biosynthesis protein BcsG

[3] = target: T2, BcsA cellulose synthase (BcsA^HA-FLAG); assay: cryo-EM structure; same sample and grids as a1; class of particles with a c-di-GMP-free BcsA synthase (non-saturated macrocomplex), with local refinements; settings: both partners purified
[4] = target: the molecule itself; assay: as above
[5] = target: the molecule itself; assay: cryo-EM structure; Bcs macrocomplex co-expressed in E. coli and purified on anti-FLAG gel by BcsA^HA-FLAG, 20 mM HEPES pH 8.0, 120 mM NaCl, 5 mM MgCl2, 10 μM AppCp, 4 μM c-di-GMP, 0.01% LM-NPG; class of the c-di-GMP-saturated macrocomplex with local refinements; the BcsB crown refined from all particles

Molecule | stoichiometry N [4] | stoichiometry N [5] | further results
Nc1ncnc2c1ncn2[C@@H]1O[C@H](COP(=O)(O)OP(=O)(O)OP(=O)(O)O)[C@@H](O)[C@H]1O [ATP] | – | – | cryo-EM structure of the complex [1]: the BcsR copies stabilize the ATP-bound BcsQ apical dimer
Nc1nc2c(ncn2[C@@H]2O[C@@H]3COP(=O)(O)O[C@H]4[C@@H](O)[C@H](n5cnc6c(=O)[nH]c(N)nc65)O[C@@H]4COP(=O)(O)O[C@H]3[C@H]2O)c(=O)[nH]1 [c-di-GMP] | – | – | cryo-EM structure of the complex [2]: An intercalated c-di-GMP dimer is found at each cis-interdomain interface of a closed BcsE
B1 | 3 | – | stoichiometry N [3]: 3
B2 | – | 6 | –
B3 | – | 2 | –
B4 | 2 | – | –
